The series concerns the molecule itself. The series is described as follows: cryo-EM structure.

B1: hERGTs (human hERG, truncated construct lacking residues 141–380 and 871–1005) (natural protein, UniProt Q12809 1-1159, looked up)
chain: MPVRRGHVAPQNTFLDTIIRKFEGQSRKFIIANARVENCAVIYCNDGFCELCGYSRAEVMQRPCTCDFLHGPRTQRRAAAQIAQALLGAEERKVEIAFYRKDGSCFLCLVDVVPVKNEDGAVIMFILNFEVVMEKDMVGSGADVLPEYKLQAPRIHRWTILHYSPFKAVWDWLILLLVIYTAVFTPYSAAFLLKETEEGPPATECGYACQPLAVVDLIVDIMFIVDILINFRTTYVNANEEVVSHPGRIAVHYFKGWFLIDMVAAIPFDLLIFGSGSEELIGLLKTARLLRLVRVARKLDRYSEYGAAVLFLLMCTFALIAHWLACIWYAIGNMEQPHMDSRIGWLHNLGDQIGKPYNSSGLGGPSIKDKYVTALYFTFSSLTSVGFGNVSPNTNSEKIFSICVMLIGSLMYASIFGNVSAIIQRLYSGTARYHTQMLRVREFIRFHQIPNPLRQRLEEYFQHAWSYTNGIDMNAVLKGFPECLQADICLHLNRSLLQHCKPFRGATKGCLRALAMKFKTTHAPPGDTLVHAGDLLTALYFISRGSIEILRGDVVVAILGKNDIFGEPLNLYARPGKSNGDVRALTYCDLHKIHRDDLLEVLDMYPEFSDHFWSSLEITFNLRDTNMIPGGRQYQELPRCPAPTPSLLNIPLSSPGRRPRGDVESRLDALQRQLNRLETRLSADMATVLQLLQRQMTLVPPAYSAVTTPGPGPTSTSPLLPVSPLPTLTLDSLSQVSQFMACEELPPGAPELPQEGPTRRLSLPGQLGALTSQPLHRHGSDPGS
As to B1, the binding result is “binds”.
